Measured values published in US12534533B2, “Anti-chemokine like receptor 1 humanized antibodies and their therapeutic applications” (OSE IMMUNOTHERAPEUTICS, priority 2019, dated 2026).
Substitutions are numbered along the chain they refer to.

How the values were obtained:
Mice dendritic cells = assay: DCs maturation and differentiation, activation markers by FACS; format: cell-based; conditions: compared to the excipient or isotype control; FIG. 16
Procedure: FIG. 1. Effect of the anti-CMKLR1 variants 1G1, 2G1, 3G1 and 4G1 chimeric antibodies on the DCs maturation and differentiation. Mice dendritic cells were incubated during maturation phase (24 h or 48 h) followed by a differentiation phase with excipient or RvE1 or anti-CMKLR1 antibodies variants (mutations on positions 1 and 2 of SEQ ID No. 8, corresponding to the VH-CDR3: 1G1 (LL), 2G1 (LI), 3G1 (IL) or 4G1 (II) or isotype controls (hIgG1 or mIgG)). Cells were then stained for FACS analysis with cell marker antibodies: A. CD80-PE; B. CD86-FITC; C. CD103-PerCPCy5.5; D. I/Ab-APC. Mean of Fluorescence was determined in each condition. E and F represent the viability of the cells measured by FACS using LIVE/DEAD® kit from Life Technologies in each condition after 24 or 48 hours of maturation respectively.
FIG. 16. Study of the myeloid cell activation markers after CMKLR1 pathway activation. Dendritic cells incubated in excipient, RvE1, 2G1 or isotype control (hIgG1) were then stained for FACS analysis with marker antibodies: A. CD80-PE. B. CD86-FITC. C. CD103-PerCPCy5.5. D. CD40-PeCy7. E. I/Ab-APC. Mean of Fluorescence was determined in each condition.
Bone marrow cells were harvested and cultured in RPMI medium supplemented with 10% FBS, glutamine and antibiotics and the dendritic cell differentiation was induced by GM-CSF at 20 ng/ml for 7 days. Then, immature dendritic cells (iDC) were collected and cultured for 24 hours with LPS (100 ng/ml) to induce the maturation from iDC to mDC. Treatments were added during differentiation and maturation at 2 μg/ml.
Dendritic cells were resuspended in PBS-FBS-EDTA and incubated with live and dead (LIVE/DEAD® Fixable Dead Cell Stains Yellow-Life Technologies) for 30 minutes on ice. Staining of CD11c-BV711, CD11b-APCCy7, I/Ab-APC, CD103-PerCPCy5.5, CCR7-V450, CD40-PeCy7, CD80-PE, CD86-FITC (all provided by BD Pharmingen) were performed.

colitis induced by TNBS = assay: acute inflammatory colitis model induced by TNBS; format: in vivo, mice; conditions: RvE1 1 μg per mouse daily, 2G1 10 μg per mouse; FIG. 3
Procedure: FIG. 3. Effect of an anti-CMKLR1 antibody on a mice acute inflammatory colitis model induced by TNBS. Mice received 200 μL of the haptenating agent TNBS at 5% in 50% ethanol on day 0 and then were injected with isotype control hIgG1 (10 μg per mouse) (x), RvE1 (1 μg per mouse) daily (●), or 2G1 antibody (10 μg per mouse) three times (□) for 5 days, or non-treated (wild type animals) (▴). Mice were sacrificed colon length was measured in each condition.
Colitis was induced in 8-10 weeks-old-C57Bl/6 male mice by intrarectal injection of 200 μL of the haptenating agent TNBS at 5% in 50% ethanol on day 0. Treatments were injected intra-peritoneally; RvE1 (1 μg per mouse) daily for three days, or 2G1 antibody (10 μg per mouse) twice for 3 days. Colitis follow-up consisting of body weight and stool score (0: normal stool; 4: blood in stool) parameters were performed daily (data not represented). When mice are euthanized, colon length representing the pathology severity was measured.

[1] = test system: peritonitis induced by Zymosan A; assay: peritonitis model (Zymosan A); format: in vivo, mice; conditions: vs isotype control
Procedure: FIG. 7. Effect of an anti-CMKLR1 antibody on a mice peritonitis model. Preventive injection of anti-CMKLR1 was performed before Zymosan A injection (1 mg per mouse in 1 mL): RvE1 (1 μg per mouse) (●), 2G1 antibody (10 μg per mouse) (□) or isotype control antibody (x). A. PMN numbered during the first 50 hours after Zymosan A injection. B. Macrophages numbered during the first 50 hours after Zymosan A injection. C. Resolution index.
Common peritonitis is induced by intraperitoneal injection of Zymosan A® (1 mg per mouse in 1 mL). Preventive injection of anti-CMKLR1 was performed 5 minutes before Zymosan A injection: RvE1 (1 μg per mouse), 2G1 antibody (10 μg per mouse). Murine peritoneal polymorphonuclear neutrophil (PMN) and macrophages were collected at 2-4-8-16-24 and 48 h after Zymosan A injection and numbered by flow cytometry analysis to determinate the resolution index (Bannenberg et al., 2005).

[2] = molecular target: T1, Biot-C7 peptide (human ChemR23 peptide, SEQ ID No. 60) (Homo sapiens, UniProt Q99788); assay: activity ELISA assay, binding of biotinylated C7 peptide; conditions: compared to wild-type 2G1; FIG. 23, FIG. 33
T1 construct: purchased synpeptide; host or cells: chemical synthesis
T1 sequence (Q99788 275-307 limits assumed): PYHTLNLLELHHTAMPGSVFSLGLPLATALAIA
Excerpt: FIG. 23. Binding recognition of C7 peptide by humanized anti-CMKLR1 derived from 2G1. Binding of C7biot in the supernatant of CHO cells transfected with different combinations of heavy and light chains (VHWT+VLWT: combination of SEQ ID No. 37 and SEQ ID No. 49; HCLC: combination of SEQ ID No. 42 and SEQ ID No.52; HDLC: combination of SEQ ID No. 43 and SEQ ID No.52; HCLD: combination of SEQ ID No. 42 and SEQ ID No.53; HDLD: combination of SEQ ID No. 43 and SEQ ID No.53).
FIG. 24. ED50 of anti-CMKLR1 derived from 2G1 antibody. 2G1 wt: HALA: combination of SEQ ID No. 41 and SEQ ID No. 50; combination of SEQ ID No. 37 and SEQ ID No. 49; HCLC: combination of SEQ ID No. 42 and SEQ ID No.52; HDLC: combination of SEQ ID No. 43 and SEQ ID No.52; HCLD: combination of SEQ ID No. 42 and SEQ ID No.53; HDLD: combination of SEQ ID No. 43 and SEQ ID No.53.
FIG. 33—Binding of purified antibodies on human ChemR23 peptide by ELISA assay (A), with ED50 concentration (ng/ml) (B). For activity ELISA assay, donkey anti-human IgG, Fc specific (Jackson Immunoresearch; USA; reference 709-005-098) was immobilized on plastic at 1.3 μg/ml in borate buffer (pH9) and purified antibody was added to measure binding in BSA1% buffer, compared to wild-type 2G1.
For activity ELISA assay, donkey anti-human IgG, Fc specific (Jackson Immunoresearch; USA; reference 709-005-098) was immobilized on plastic at 1.3 μg/ml in borate buffer (pH9) and purified antibody were added to measure binding in BSA1% buffer, compared to wild-type 2G1.
For activity ELISA assay, donkey anti-human IgG, Fc specific (Jackson Immunoresearch; USA; reference 709-005-098) was immobilized on plastic at 1.3 μg/ml in borate buffer (pH9) and purified antibody was added to measure binding in BSA1% buffer, compared to wild-type 2G1.

[3] = test system: PMN from healthy volunteers; assay: Percentage of dead PMN (mortality of neutrophils) on coated antibodies; format: cell-based, human
Procedure: […] Mortality of PMN was analyzed by incubating PMN with specific markers of the mortality and viability and then counted by picture analysis.
(§1) FIG. 36—Increase of dead PMN neutrophils in vitro with anti-ChemR23 antibodies coated. PMN from healthy volunteers were incubated in culture medium with coated HEF-LDT52S, HEF-LEF and HDLD antibody variants at 10 μg/mL for 24 h and stained either with a dead/viability kit (LIVE/DEAD (Invitrogen)). The percentages of positive cells were obtained by analyzing the pictures with Fiji software. Isotype control was added as control.
(§2) PMN from healthy volunteers were incubated in culture medium with coated Ab at 10 μg/mL for 24 h or 5 h and stained either with a dead/viability kit (LIVE/DEAD (Invitrogen)) or a specific marker of reactive oxygen species (ROS) respectively. The percentages of positive cells were obtained by analyzing the pictures with ImageJ software.
as §1, with “PMN” for “FIG. 36—Increase of dead PMN neutrophils in vitro with anti-ChemR23 antibodies coated. PMN”

[4] = test system: Caspase-3 in PMN from healthy volunteers; assay: Caspase-3 expression in PMN by Western Blot; format: cell-based, human; conditions: coated Ab at 10 μg/mL, FIG. 26B
Procedure: (§3) Neutrophils were isolated from blood of healthy volunteers and cultured for 24 h (Mortality analysis), or 4 h, 6 h, 11 h (Caspase-3 assay), or 5 h (ROS assay) on coated Iso ctrl (cross), chimeric anti-ChemR23 2G1 (square) or different humanized versions of the 2G1 (diamonds). Mortality of PMN was analyzed by incubating PMN with specific markers of the mortality and viability and then counted by picture analysis.
PMN from healthy volunteers were incubated in culture medium with coated Ab at 10 μg/mL for different times and collected for Caspase-3 staining analyzed by Western Blot. The intensity of Capase-3 expression was calculated on WB.

[5] = test system: ROS production by PMN from healthy volunteers; assay: ROS test in PMN; format: cell-based, human; conditions: coated Ab at 10 μg/mL, after 5 h; FIG. 26C
Procedure: as §3, §2

## CC[C@@H](O)/C=C/C=C\C[C@@H](O)/C=C/C=C/C=C\[C@@H](O)CCCC(=O)O [RvE1, Resolvin E1, reference compound]
Mice dendritic cells
  expression of CD80, CD86, CD103, CD40 and IAb: strong decrease
Colitis induced by TNBS
  colon length: the same as normal animal
[1]; first 50 hours after Zymosan A, FIG. 7A
  PMNs number: slightly less
[1]; first 50 hours after Zymosan A, FIG. 7B
  Macrophages number: slightly less
[1]; FIG. 7C
  resolution index: better resolution index

B1: HCLC: humanized 2G1 variant: combination of SEQ ID No. 42 and SEQ ID No. 52 (antibody, V domains shown)
VH: EVQLVESGGGLVQPGGSLRLSCAASGFTFSSYGMSWVRQAPGKGLELVATINRYGGSTYYAASVKGRFTISRDNSKNTLYLQMNSLRAEDTAVYYCPKLIYYGNEGDSWGQGTLVTVSS
VL: AIQLTQSPSSLSASVGDRVTITCRASQSVSFLHWYQQKPGKAPKRWIYDATKLTSGVPSRFSGSGSGTDFTLTISSLQPEDFATYYCQQWNSKPPLTFGGGTKVEIK
[2]
  binding activity to antigen-specific peptides (C7 peptide): even better than the germline antibody HALA and the wild type antibody 2G1

B2: HALA: humanized 2G1 germline antibody: combination of SEQ ID No. 41 and SEQ ID No. 50 (antibody, V domains shown)
VH: B1 VH with A61P, A62D, K98R
VL: B1 VL with R24S, Q27S, L32M, A50T, F70Y
[3]; at 48 hours, compared with IgG1 control
  percentage of dead cells: similar
[4]; 4 h, 6 h, 11 h
  caspase-3 cleavage: increases caspase-3 cleavage
[4]
  caspase-3 activity: higher effect on caspase 3 activity as compared to the 2G1 antibody
[5]
  ROS production by PMN: increase the ROS production

B3: HDLC: humanized 2G1 variant: combination of SEQ ID No. 43 and SEQ ID No. 52 (antibody, V domains shown)
VH: B1 VH with G33A
VL: B1 VL
[2]
  binding activity to antigen-specific peptides (C7 peptide): even better than the germline antibody HALA and the wild type antibody 2G1

B4: HEF-LEF: humanized 2G1 variant: HEF (SEQ ID NO: 91) with LEF (SEQ ID NO: 55) (antibody, V domains shown)
VH: B1 VH with G33A, A49S, N52S, R53G, Y54S
VL: B1 VL with W46L, T51S, T54E, N91Q
[3]; coated Ab at 10 μg/mL, 24 h, FIG. 26, FIG. 36
  mortality of PMN (percentage of dead PMN): accelerate the death of PMN

B5: HCLD: humanized 2G1 variant: combination of SEQ ID No. 42 and SEQ ID No. 53 (antibody, V domains shown)
VH: B1 VH
VL: B1 VL with N91Q
[2]
  binding activity to antigen-specific peptides (C7 peptide): even better than the germline antibody HALA and the wild type antibody 2G1
